B1: FAJ-N1C0 first clone: JT-FAJ-16 sialyltransferase lacking signal peptide region, nucleotides 67 to 1209 of SEQ ID NO: 30 (protein, listed as Vibrio sp.)
chain: MKNIITKRMLIILSSLFTIIGCNNDNSTTTNNNAIEIYVDRATLPTIQQMTKIVSQKTSNKKLISWSRYPITDKSLLKKINAEFFKEQFELTESLKNIILSENIDNLIIHGNTLWSIDVVDIIKEVNLLGKNIPIELHFYDDGSAEYVRIYEFSKLPESEQKYKTSLSKNNIKFSIDGTDSFKNTIENIYGFSQLYPTTYHMLRADIFDTTLKINPLRELLSNNIKQMKWDYFKDFNYKQKDIFYSLTNFNPKEIQEDFNKNSNKNFIFIGSNSATATAEEQINIISEAKKENSSIITNSISDYDLFFKGHPSATFNEQIINAHDMIEINNKIPFEALIMTGILPDAVGGMGSSVFFSIPKEVKNKFVFYKSGTDIENNSLIQVMLKLNLINRDNIKLISDI
modifications: CDS (1)..(1209) /gene=“FAJ16-23ST” /product=“Beta-galactoside- alpha 2,3-sialyltransferase”
B2: ISH467-N2C0 third clone: JT-ISH-467 sialyltransferase lacking signal peptide region, nucleotides 73 to 1230 of SEQ ID NO: 1, no mutation (protein, listed as Photobacterium phosphoreum)
chain: MFVFCKKIFFLIFISLMILGGCNSDSKHNNSDGNITKNKTIEVYVDRATLPTIQQMTQIINENSNNKKLISWSRYPINDETLLESINGSFFKNRPELIKSLDSMILTNEIKKVIINGNTLWAVDVVNIIKSIEALGKKTEIELNFYDDGSAEYVRLYDFSRLPESEQEYKISLSKDNIQSSINGTQPFDNSIENIYGFSQLYPTTYHMLRADIFETNLPLTSLKRVISNNIKQMKWDYFTTFNSQQKNKFYNFTGFNPEKIKEQYKASPHENFIFIGTNSGTATAEQQIDILTEAKKPDSPIITNSIQGLDLFFKGHPSATYNQQIIDAHNMIEIYNKIPFEALIMTDALPDAVGGMGSSVFFSLPNTVENKFIFYKSDTDIENNALIQVMIELNIVNRNDVKLISDLQ
modifications: CDS (1)..(1230) /gene=“467-23ST” /product=“Beta-galactoside- alpha 2,3-sialyltransferase”
B3: ISH224-N1C0 first clone: JT-ISH-224 sialyltransferase lacking signal peptide region, nucleotides 73 to 1230 of SEQ ID NO: 28 (protein, listed as Photobacterium sp.)
chain: MLVFCKKMFFSVFISLMILGGCNSDSNHNNSDGNITKNKTIEVYVDRATLPTIQQMTQIINENSNNKKLISWSRYPINDEELLESINGSFFKNNSELIKSLDSMILTNDIKKVIINGNTLWAADVVNIIKSIEAFGKKTEIELNFYDDGSAEYVRLYDFSKLPESEQEYKISLSKDNILSSINGTQPFENVVENIYGFSQLYPTTYHMLRADIFETNLPLRSLKGVLSNNIKQMKWDYFKTFNSQQKDKFYNFTGFNPDEIMEQYKASPNKNFIFVGTNSGTATAEQQIDILTEAKNPNSPIITKSIQGFDLFFKGHPSATYNKQIIDAHNMIEIYNKIPFEALIMTDALPDAVGGMGSSVFFSLPNTVENKFIFYKSDTDIENNALIQVMIELNIVNRNDVKLISDLQ
modifications: CDS (1)..(1230) /gene=“224-23ST” /product=“Beta-galactoside-alpha-2,3-sialyltransferase”

Test system in one series: not listed separately
Nature of the series: Confirmation of α2,3 sialyltransferase activity of E. coli-expressed enzyme with pyridylaminated lactose, HPLC. The format is biochemical. The conditions noted are these: pyridylaminated lactose 2.0 μM, CMP-sialic acid 5.7 μM, pH 6.0, 25° C., 6 hours. Here is the method: Using the enzyme obtained in Example 2, the enzymatic reaction was carried out using a pyridylaminated sugar chain as a glycosyl acceptor substrate. The pyridylaminated sugar chain used for analysis was pyridylaminated lactose (Galβ1-4Glc-PA, Takara Bio Inc., Japan). The glycosyl acceptor substrate, CMP-NeuAc and the enzyme were dissolved at 2.0 μM, 5.7 μM and 20 mU/ml, respectively, in 25 μl of 20 mM cacodylate buffer (pH 6.0), and then reacted at 25° C. for 3 hours. After the reaction, the reaction solution was treated at 100° C. for 2 minutes to inactivate the enzyme, followed by HPLC to analyze the reaction product.
The HPLC system used was Shimadzu LC10A (Shimadzu Corporation, Japan) and the analytical column used was Takara PALPAK Type R (Takara Bio Inc., Japan). The column which had been equilibrated with 100 mM acetate-triethylamine (pH 5.0) containing 0.15% N-butanol was injected with the reaction solution diluted with Eluent A (100 mM acetate-triethylamine, pH 5.0). For elution of the pyridylaminated sugar chain, Eluent A (100 mM acetate-triethylamine, pH 5.0) and Eluent B (100 mM acetate-triethylamine containing 0.5% n-butanol, pH 5.0) were used to successively elute the pyridylaminated sugar chain with a linear gradient of 30% to 100% Eluent B (0 to 35 minutes) and then 100% Eluent B (35 to 50 minutes). The analysis was performed under the following conditions: flow rate: 1 ml/min, column temperature: 40° C., detection: fluorescence (Ex: 320 nm, Em: 400 nm).
As in the case of Example 3, pyridylaminated lactose (Galβ1-4Glc-PA, PA-Sugar Chain 026, Takara Bio Inc., Japan) was used as a glycosyl acceptor to carry out the enzymatic reaction. After the reaction, the reaction solution was heated at 95° C. for 5 minutes to inactivate the enzyme, followed by HPLC analysis. It should be noted that the enzymatic reaction was accomplished at 25° C. for 6 hours using pyridylaminated lactose and CMP-sialic acid dissolved at 2.0 μM and 5.7 μM, respectively, in 25 μl of 20 mM cacodylate buffer (pH 6.0) (Reaction 1). On the other hand, a control experiment (Reaction 2) was carried out using a reaction solution free from CMP-sialic acid. Further, to clarify the retention time of standards, the crude enzyme solution was inactivated by thermal treatment (95° C., 5 minutes) and tested in the presence of pyridylaminated lactose and pyridylaminated α2,3-sialyllactose (pyridylaminated 3′-sialyllactose) (Neu5Acα2-3Galβ1-4Glc-PA, PA-Sugar Chain 029, Takara Bio Inc., Japan).
Regarding B1, the “α2,3 sialyltransferase activity (formation of pyridylaminated α2,3-sialyllactose)” value (from here on “α2,3 sialyltransferase activity”) is “a peak of pyridylaminated α2,3-sialyllactose (pyridylaminated 3′-sialyllactose) was detected”.

On to B2, for which the “α2,3 sialyltransferase activity” value is reported as “found to have α2,3 sialyltransferase activity”.

Turning to B3, the “α2,3 sialyltransferase activity” value was “a peak of pyridylaminated α2,3-sialyllactose (pyridylaminated 3′-sialyllactose) was detected”.

Another series concerns asialofetuin. The series can be described thus: Sialic acid transfer to glycoprotein (asialofetuin), gel filtration and scintillation counting. The class given is biochemical. The conditions noted are these: asialofetuin acceptor; CMP-14C-NeuAc 22.8 nmol (about 19,000 cpm); enzyme 10 mU; 25° C., 2 hours. The text has this:
Cell homogenates prepared from E. coli cells introduced with the third clone of ISH467-N2C0, the first clone of ISH224-N1C0 and the first clone of FAJ-N1C0 were each purified by ion exchange chromatography and hydroxyapatite chromatography to give an electrophoretically single band. The thus purified β-galactoside-α2,3-sialyltransferases were used in the following experiment in order to examine the presence or absence of sialyltransferase activity toward glycoproteins.
As a glycosyl acceptor substrate, asialofetuin was used. Asialofetuin (2 mg) was dissolved in 1 ml of 20 mM Bis-tris buffer (pH 6.0) and used as a glycosyl acceptor substrate solution. As a glycosyl donor substrate, CMP-^14C-NeuAc-containing CMP-NeuAc was used. The glycosyl acceptor substrate solution (40 μl), the glycosyl donor substrate (5 μl, 22.8 nmol (about 19,000 cpm)) and any of the enzyme solutions (5 μl, 10 mU each) were mixed and incubated at 25° C. for 2 hours to cause sialic acid transfer reaction. After completion of the reaction, the reaction solution was gel-filtered by being applied to a Sephadex G-50 Superfine (0.8×18.0 cm) equilibrated with 0.1 M sodium chloride. A glycoprotein-containing eluate fraction (2-4 ml fraction) from gel filtration was collected and measured for its radioactivity using a liquid scintillation counter to quantify sialic acid transferred to the glycosyl acceptor substrate.
In general terms: SEC sorts molecules by how far they enter the pores of the column.
On to B1, for which the “Radioactivity (cpm)” value came out at 2865 cpm.

As to B2, the “Radioactivity (cpm)” value came out at 1729 cpm.

Turning to B3, the “Radioactivity (cpm)” value came out at 3301 cpm.

Test system in a further series: not listed separately
Nature of the series: Optimum pH for enzyme activity. The class given is biochemical. The conditions noted are these: 25° C.; acetate, cacodylate, phosphate, TAPS, CHES, CAPS buffers pH 4.0-11.0. The procedure: (§1) Purified enzymes were prepared to examine the optimum pH and temperature for β-galactoside-α2,3-sialyltransferase produced by the strain JT-ISH-467 as well as recombinant β-galactoside-α2,3-sialyltransferases produced by the third clone of ISH467-N2C0, the first clone of ISH224-N1C0 and the first clone of FAJ-N1C0.
Acetate buffer (pH 4.0, pH 4.5 and pH 5.0), cacodylate buffer (pH 5.0, pH 5.5, pH 6.0, pH 6.5 and pH 7.0), phosphate buffer (pH 7.0, pH 7.5 and pH 8.0), TAPS buffer (pH 8.0, pH 8.5 and pH 9.0), CHES buffer (pH 9.0, pH 9.5 and pH 10.0) and CAPS buffer (pH 10.0, pH 10.5 and pH 11.0) were prepared and used for enzyme activity measurement at 25° C. at various pH values.
As a result, as shown in FIGS. 3-1 and 3-2, the enzyme activity was maximum at pH 5.0 for β-galactoside-α2,3-sialyltransferase produced by the strain JT-ISH-467, at pH 5.5 for the third clone of ISH467-N2C0, at pH 5.0 for the first clone of ISH224-N1C0, and at pH 5.5 for the first clone of FAJ-N1C0. […] It should be noted that enzyme activity at each pH was expressed as relative activity, assuming that the enzyme activity at pH where it reached a maximum was set to 100.
In the case of B1, the “pH at which the enzyme activity was maximum (optimum pH)” value (“pH” below) came out at 5.5.

On to B2, for which the “pH” value is on record as 5.5.

B3: the “pH” value is 5.0.

Test system in the next series: not listed separately
Nature of the series: Optimum temperature for enzyme activity. The format is biochemical. To be noted: 5° C. to 45° C. at 5° C. intervals, at the optimum pH of each enzyme. Here is the method: as §1
The enzyme activity was measured at an interval of 5° C. starting from 5° C. up to 45° C. and at pH 5.0 for β-galactoside-α2,3-sialyltransferase produced by the strain JT-ISH-467, in cacodylate buffer (pH 5.5) for the third clone of ISH467-N2C0, in cacodylate buffer (pH 5.0) for the first clone of ISH224-N1C0, and in cacodylate buffer (pH 5.5) for the first clone of FAJ-N1C0.
As a result, as shown, in FIGS. 4-1 and 4-2, the enzyme activity was maximum at 25° C. for β-galactoside-α2,3-sialyltransferase produced by the strain JT-ISH-467, at 25° C. for the third clone of ISH467-N2C0, at 30° C. for the first clone of ISH224-N1C0, and at 20° C. for the first clone of FAJ-N1C0. […] It should be noted that enzyme activity at each temperature was expressed as relative activity, assuming at that the enzyme activity at a temperature where it reached a maximum was set to 100.
B1: the “Temperature at which the enzyme activity was maximum (optimum temperature)” value (from here on “Temperature”) came to 20 °C.

For the molecule B2, the “Temperature” value is 25 °C.

Take B3: the “Temperature” value turned out to be 30 °C.

Source of the values: patent publication US8030043B2, “β-galactoside-α2,3-sialyltransferase, a gene encoding thereof, and a method for producing thereof” (Japan Tobacco Inc., priority 2005, dated 2011).
